Results as given in the nanobody polyreactivity screen of Harvey et al. (2022).

Experiment: yeast display, Sf9 membrane polyspecificity reagent, FACS + sequencing; frameworks hold sequencing errors
Summary of the method: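 In a synthetic yeast display library (Saccharomyces cerevisiae BJ5465), nanobody expression was induced with galactose for 36–48 hours. FACS gates were set low and high (top ~1%) using anti-HA fluorescence for expression and streptavidin fluorescence for binding of the Sf9 membrane reagent. Each polyreactivity label is drawn from the gate of origin.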

Sequence | polyreactivity (PSR sort gate)
QVQLVESGGGLVQAGGSLRLSCAASGSTFIYYAMGWYRQAPGKERELVASISRSGGSTYYADSVKGRFTISRDNAKNTVYLQMNSLKPEDTAVYYCAAVGWTYEYWEWYDYWGQGTQVTVSS | high polyreactivity
QVQLVESGGGLVQAGGSLRLSCAASGYIFVWYDMGWYRHAPGKERELVAAITWSGGSTYADSVKGRFTISRDNAKNTVYLQMNSLIPEDTAVDYCNADNNLDVYVDYGFNYWGQGTQVTVSS | low polyreactivity
QVQLVESGGGLVQAVGSLRLSCAASGFTFTNYAMGWSRQAPVKEREFVAAISGTGGSTYYADSVKGRFTISRDNAYNTEYLQMNSLKPEDTAVYYCARRRTYPPGRYYYLGQGTQVTVSS | high polyreactivity
QVQLVESGGGLVQAGGSLRLSCAASGSTFQYNAMGWYRQAPGKEREFVAAISRTGTSTYYADSVKGRFTISRDNAKNTVYLLMNSLKPEDTAVYYCAAKSLRSGMGYWGQGTQVTVTS | high polyreactivity
QVHLVESGGGLVQAGGSLRLSCAASGFIFNYYAMGWYRQAPGKERELVAAISWRGTSTYYADSVKGRFTISRDNAKNTVYLQMNSLKPEDNAVYYCAAAKYPYVRRAWNFVGYDYWGQGTQVTVSS | high polyreactivity
QVQLVESGGGLVQAGGSLRLSCAASGRTFGKNAMGWYRQAPGKERELVAAISWSGGRTYYADSVKGRFTISRDNAKNTVYLQMNSLKPEDTAVYYCATASYRNPSDYWGQGTQVTVSS | high polyreactivity
QVQLVESGGGLVQAGGSLRLSCAASGRTFKHYVMGWYRQAPGKERELVATISGGGGTYFADSVKGRFTISRYNAKYTVYLQMNSLKPEVTAVYYCAARYPRGSRTWSFDSNKQRDYWGQGTQVTVSS | low polyreactivity
QVQLVESGGGLVQAGGSLRLSCAASGITFVLNVMGWYRQAPGKERELVAAISWSVGGTYYADSVKGRFTISRDNAKNTVYLQMNSLKPEDTAVYYCAAGSYAYDNYGSEYWKWYGYWGQGTQVTVSS | low polyreactivity
QVQLVESGGGLVQAGGSLRLSCAASGFIFGINAMGWSRQAPGKERELVAAISRSGGRTYYADSVKGRCTISRDNAKNTVYLQMNSLKPEDTAVYYCAADKASYTNYDGDSWGQGTQVTVSS | high polyreactivity
QVQLVESGGGLVQAGGSLRLSCAASGLIFYRYTMGWYRQAPGKEREFVAAITAGGSTYYADSVKGRFTISRDNAKNTVYVQMNSLKPEDTAVYYCATLVRLLQYTYIKYDYWGQGTQVTVSS | high polyreactivity
QVQLVESGGGLVQAGGSLRLSCAASGRTFYANAMGWYRQAPGKERELVAAISTGGDGTYYADSVKGRFTISRDNAKKTVYLQMNSLKPEDTAVYYCAVRHRASGILYDYWGQGTQVTVSS | low polyreactivity
QVQLVESGGGLVQAGGSHRLSCAASGYTFPLYAMGWYRQAPGKERELVADINIGGASTYYADSVKGRFTISRDNAKNTVYLQMNSLKPEDTAVYYCAKEYYDGYFPTFDYDYWGQGTQVTVSS | low polyreactivity
QVQLVETGGGLVQAGGSLRLSCAASGRIFYYKAKGWYRQAPGKERELVASISWDASSTYYADSVKGRFTISRDNAKNTVYLQMNSLKPEDTAVYYCNIKHLYRQYDYWGQGTQVTVSS | low polyreactivity
QVQLVESGGGLVQAGGSLRLSCAASGSTLVANAMGWYRQAPGKERELVARITSGTSTYYADSVKGRFTISRDNAKNTVYLQMNSLKPEDTAVYYCAAGRWTRRRTYDSWGQGTQVTVSS | high polyreactivity
RVQLVESGGGLVQAGGSHRLSCAASGRIFKNYAIGWYRQAPGKQRELVASITIGSTTYAESEKGRFTISRDNAKNTVYLKMNSLKREDTAVYYCAARRPRGFQGPNPWGYYYWGQGTQVTVSS | high polyreactivity
QVQLVESGGGLVQARGSLRLSCAASGRILWDYAMGWYRQAPGKEREWLAAIDWSAGSTYYADSVKGRFTISRDNAKNTVYLQMKSLKPEDTAVYYCNARSRVGNSGADYDYWGQGTQVTVSS | low polyreactivity

Sequence | polyreactivity (PSR sort gate)
QVQLVESGGGLVQEGGSLRLSCAASGRTFWQNAMGWYRQAAGKERELVAAIRIGGSTNYAVSVKGRFTISRDNAKNTVYLQMNSLKPEYTAFYYCAARRGYYSRNDYWGQVTQVTVSS | high polyreactivity
QVQLVESGGRLVQAGGSLRLSCAASGRILRQYTMGWYRQAPGKERELVAGITGSDSSTYYADSVKGRFTISRDNAKNTVYFQMNSLKPEDRAVYYCGTYRWGTLASIYYYWGQGPQVTVSS | low polyreactivity
QVQLVESGGGLVQAGGSLRLSCAASGRIFYYYAMGWYRQAPATERELFAGINSGGNTYADSVKGRFTISRDNAKNTVYLQMNSLKPEDTAVYYCATDFYSYAGGYYHHDHWGQGTQVTVSS | high polyreactivity
QVQLVESGGGLVQAGGSLRLTCAASGFIFRAYAKGWYRQEPGKERELVAAISRSVSRTYYADSVKGRFTISRDNAKNTVYLQMNSLKPEDTAVYYCAADGQLHMDYWGQGTQVTVSS | high polyreactivity
QLQLQESGGGLVQAGGSLRLSCAASAFIFARNYMGWYRQAPGKERELVAGIGVGASTNYADSVKGRFTISRDNAKNTVYLQMNSLEPEDTAVYYCAVGDTVLGYHYYWGQGTQVTVSN | low polyreactivity
QVQLVESGGGLVQAGGSLRLSCAASGYTFYRYTMGWYRQAPGKERELVAAINSGGSTNYADSLKGRFTISRDNAKYTVYLQMNSLKPEDTAVYYCARRYQTWPRWYDYWGQGTQVTVSS | high polyreactivity
QVQLVESGGGLVQAGGSLRLSCAASGRIFRGNTMGWYRQAPGKERELVAAITRGGSTSYADSVKGRFTISRDNAKNTVYLQMNSLKPEDTAVYYCATRTHGEGTRRDSWGQGTQVTVSS | low polyreactivity
QVQLVESGGGLVQAGGSLRLSCAASGGPFWYYAMGWYRQAPGKERELVAAITRGGSTSYADSVKGRFTISRDNAKKTVYLQMNSLKPEDTAVYYCNARPYSSYWRYNYWGQGTQVTVSS | high polyreactivity
QVQLVESGGGLVQAGGSLRLSCAASGFIFQTNVMGWYRQAPGKERELVAAISSGDSTYYADSVKGRFTISRDNAKNTVYLQMNSLKPEDTAVYYCAADSIRTLLTGNTVYIWYGYWGQGTQVTVSS | low polyreactivity
QVQLVESGGGLVQAGGSLRLSCAASGGTIRYYAMGWYSQAPWKERELVAAISVGGGRTYYADSVKGRFTISRDNAKNTVYLQMNSLKPEDTAVYYCAADYASWSNWGYEYWGQGTQVTVSS | high polyreactivity
QVQLVESGGGLVQAGGSLRLSCAASGRTSVSYAMGWYRQAPGKERELVASITSGGSTYYADSVKGRFTISRDNAKNTVYLQMNSLKPEDTAVYYCAARGRNVAGYKGGYWGQGTQVTVSS | high polyreactivity
QVQLVESGGGLVQAGGSLRLSCAASGGTFGTYAMGWYRQAPGKERELVAAITYRGGRTYYADSVKGRFTISRDNAKYTVYLQLDCVKPEDSAVYYCAKDVRGHRHPYSLRDYWGEGTQVTVSS | high polyreactivity
QVQLVESGGGLVQAGGSLRLSCAAAGRIFVGYAMGWYRQAPGKERELVAGISRSGYSTYYADSVKGRFTISRDNAKNTVYLQMNSLKPEDTAVYYCAASWYKNPTRYYYWGQGTQVTVSS | high polyreactivity
QVQLVESGGGLVQAGGSLRLSSAASGSIFDYYAMGWSRQAPGKERELVAAISGSGGSTYYADSVKGRFTISRDNAKNTVYLQMNSLKPEDTAVYYCNVYYRRRYDYWGQGTQVTVSS | high polyreactivity
QVQLVESGGGLVQAGGSLRLRCAASGRIVYWYAMGWYIQAPGKERELVATINQSGSSTYYADSVKGRFTISRDNAKNTVYLQMNSLKPEDTAVYYCARARSHYAYYWWNAGTGLDYWGQGTQVTVSS | high polyreactivity
